This note sets out measurements from patent publication US20230265192A1 (GIGAGEN, published 2023).

Experiment [1] concerns the target T1, His-tagged human CTLA-4 (CT4-H5229; Acro Biosystems) (human, UniProt P16410 36-161).
T1 construct: bought soluble protein; also called soluble human CTLA-4; recombinant human CTLA-4; not shown: His tag
Kind of experiment: SPR (Carterra). Here is the method: (§1) Then, goat anti-Human IgG Fc (Southern Biotech 2047-01) was coupled for 10 minutes at […] in 10 mM Sodim Acetate pH 4.5 (Carterra Inc.). The surface was then deactivated with 1 M ethanolamine pH 8.5 (Carterra Inc.). Running buffer used for the lawn immobilization was HBS-EPC (10 mM HEPES, 150 mM NaCl, 3 mM EDTA, 0.05% Tween 20, pH 7.4; Teknova).
(§2) The sensor chip was then transferred to a continuous flow microspotter (CFM; Carterra Inc.) for array capturing. The mAb supernatants were diluted 50-fold ([…] final concentration) into HBS-EPC with 1 mg/mL BSA. The samples were each captured twice with 15-minute and 4-minute capture steps on the first and second prints, respectively, to create multiple densities, using a […] flow rate. The running buffer in the CFM was also HBS-EPC.
(§3) Next, the sensor chip was loaded onto an SPR reader (MX-96 system; Ibis Technologies) for the kinetic analysis. CTLA-4 was injected at five increasing concentrations in a four-fold dilution series with concentrations of 1.95, 7.8, 31.25, 125, and 500 nM in running buffer (HBS-EPC with 1.0 mg/mL BSA). CTLA-4 injections were 5 minutes with a 15-minute dissociation at […] in a non-regenerative kinetic series. An injection of the goat anti-Human IgG Fc capture antibody at […] was injected at the end of the series to verify the capture level of each mAb. Binding data was double referenced by subtracting an interspot surface and a blank injection and analyzed for ka (on-rate), kd (off-rate), and KD (affinity) using the Kinetic Interaction Tool software (Carterra Inc.).

Experiment [2] deals with T2, human CTLA-4 expressed on the cell surface (human, UniProt P16410 36-223). Kind of experiment: cell-based or functional assay.
T2 sequence (P16410 36-223 limits assumed): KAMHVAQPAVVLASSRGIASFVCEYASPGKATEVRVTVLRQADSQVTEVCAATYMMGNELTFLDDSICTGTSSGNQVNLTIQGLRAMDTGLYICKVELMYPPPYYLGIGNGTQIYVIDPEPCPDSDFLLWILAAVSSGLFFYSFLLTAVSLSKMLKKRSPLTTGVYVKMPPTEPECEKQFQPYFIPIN
The target of experiment [3] is T1, His-tagged human CTLA-4 (CT4-H5229; …). Kind of experiment: SPR (Carterra). Here is the method: as §1, §2, §3
The source holds these as a separate data set.

Another experiment has as its target mouse CTLA-4 (mouse, UniProt P09793 36-161, limits assumed). Kind of experiment: BLI (Octet). How it is done: (§4) The binding specificity and affinity of each full-length antibody towards CTLA-4 were determined using biolayer interferometry (BLI) and/or surface plasmon resonance (SPR). Anti-cyno CTLA-4 and anti-mouse CTLA-4 affinities were tested using ForteBio (BLI). Anti-human CTLA-4 affinities were measured using Carterra (SPR).
(§5) For BLI, antibodies were loaded onto an Anti-Human IgG Fc (AHC) biosensor using the Octet Red96 system (ForteBio). Loaded biosensors were dipped into antigen dilutions beginning at 300 nM, with 6 serial dilutions at 1:3. Kinetic analysis was performed using a 1:1 binding model and global fitting.
(In general: BLI is a label-free optical method that tracks binding on a fibre tip over time.)

Experiment [4] concerns the target T3, His-tagged cynomolgus CTLA-4 (CT4-C5227; Acro Biosystems) (cynomolgus, UniProt G7PL88 36-161).
T3 construct: also called soluble cynomolgus CTLA-4; cyno CTLA-4
Kind of experiment: BLI (Octet). How it is done: as §4, §5

In experiment [5] the target is T2, human CTLA-4 expressed on the cell …. Kind of experiment: cell-based or functional assay. This is another data set of the same source.
In experiment [6] the target is T4, CD27 on CHO cells (UniProt P26842 20-260, limits assumed).
T4 construct: whole, on cells; also called CD27+ CHO cells; irrelevant antigen (CD27)
T4 sequence (P26842 20-260 limits assumed): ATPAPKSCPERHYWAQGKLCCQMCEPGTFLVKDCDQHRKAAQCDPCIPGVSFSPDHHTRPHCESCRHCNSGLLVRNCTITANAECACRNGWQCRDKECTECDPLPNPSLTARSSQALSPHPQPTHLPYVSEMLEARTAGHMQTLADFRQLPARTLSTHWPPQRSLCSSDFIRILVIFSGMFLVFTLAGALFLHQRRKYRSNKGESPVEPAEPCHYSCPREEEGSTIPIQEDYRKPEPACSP
Kind of experiment: flow cytometry, 10 µg/mL mAb, geometric MFI. Here is the method: (§6) Table 23. In vitro characterization of scFvs reformatted as full-length antibodies. kon, koff, and KD of the indicated CTLA-4 mAbs for soluble human CTLA-4 was determined by SPR (Carterra). Geometric MFI of the indicated CTLA-4 mAbs bound to CTLA-4⁺ or CD27⁺ CHO cells as detected by a secondary human IgG antibody and flow cytometry. Affinity (KD) of the indicated CTLA-4 mAbs for soluble cynomolgus CTLA-4 was determined by a single antigen concentration BLI measurement (Octet). […] Due to constraints on sample size in each Promega bioassay kit, this set of aCTLA-4 mAbs was analyzed using multiple plates (plate letters correspond to Plate A-D in FIG. 20D).
(§7) To determine if the CTLA-4 mAbs bound the appropriate antigen expressed on the surface of mammalian cells, CHO cell lines stably expressing human CTLA-4 or an irrelevant antigen (CD27) were generated. Cells (0.5×10⁶ each cell line) were combined and washed with MACS buffer (Dulbecco's Phosphate Buffered Saline [DPBS], with 0.5% bovine serum albumin [BSA], and 2 mM ethylenediaminetetraacetic acid [EDTA]). The cells were incubated with 10 μg/mL anti-CTLA-4 for 30 min at 4° C., then excess, unbound mAbs were removed by washing twice with MACS buffer. The cells were then stained with PE-conjugated anti-Human IgG Fc antibody (clone M1310G05, BioLegend 410720, San Diego, Calif., USA) to detect bound anti-CTLA-4 and with fluorescein isothiocyanate (FITC)-conjugated anti-CD27 (clone 0323, BioLegend 302806, San Diego, Calif., USA) to distinguish the cells expressing the irrelevant antigen. Cells were washed twice with MACS buffer, fixed with 4% paraformaldehyde fixation buffer (BioLegend 420801, San Diego, Calif., USA) for 20 minutes at room temperature and washed twice more with MACS buffer.

The target of experiment [7] is T2, human CTLA-4 expressed on the cell …. Kind of experiment: flow cytometry, 10 µg/mL mAb, geometric MFI. How it is done:
as §6, §7
(In general: Flow cytometry measures light scatter and fluorescence of single cells or particles in a stream.)

Experiment [8] deals with T1, His-tagged human CTLA-4 (CT4-H5229; …). Kind of experiment: SPR (Carterra), soluble human CTLA-4.
Experiment [9] addresses T3, His-tagged cynomolgus CTLA-4 …. Kind of experiment: BLI (Octet), single antigen concentration. Here is the method: as §6
Antibodies were loaded at 5 μg/mL onto Protein A biosensors that were dipped into 80 nM antigen, and kinetic constants were calculated using a monovalent model.

The target of experiment [10] is T4, CD27 on CHO cells. Kind of experiment: flow cytometry, mixed CTLA-4+ and CD27+ CHO cells. How it is done:
To determine if the CTLA-4 mAbs bound the appropriate antigen expressed on the surface of mammalian cells, CHO cell lines stably expressing human CTLA-4 or an irrelevant antigen (CD27) were generated. Cells (0.5×10⁶ each cell line) were combined and washed with MACS buffer (Dulbecco's Phosphate Buffered Saline [DPBS], with 0.5% bovine serum albumin [BSA], and 2 mM ethylenediaminetetraacetic acid [EDTA]). The cells were incubated with 10 μg/mL anti-CTLA-4 for 30 min at 4° C., then excess, unbound mAbs were removed by washing twice with MACS buffer. The cells were then stained with PE-conjugated anti-Human IgG Fc antibody (clone M1310G05, BioLegend 410720, San Diego, Calif., USA) to detect bound anti-CTLA-4 and with fluorescein isothiocyanate (FITC)-conjugated anti-CD27 (clone 0323, BioLegend 302806, San Diego, Calif., USA) to distinguish the cells expressing the irrelevant antigen. Cells were washed twice with MACS buffer, fixed with 4% paraformaldehyde fixation buffer (BioLegend 420801, San Diego, Calif., USA) for 20 minutes at room temperature and washed twice more with MACS buffer. […] Binding of mAbs to CTLA-4 on the cell surface was determined using LSR II (BD Biosciences, San Jose, Calif., USA) or CytoFLEX LX (Beckman Coulter, Brea. Calif., USA) flow cytometers and analyzed using FlowJo (v10.6.1, BD Biosciences, San Jose, Calif., USA).

T1 sequence (P16410 36-161 limits assumed): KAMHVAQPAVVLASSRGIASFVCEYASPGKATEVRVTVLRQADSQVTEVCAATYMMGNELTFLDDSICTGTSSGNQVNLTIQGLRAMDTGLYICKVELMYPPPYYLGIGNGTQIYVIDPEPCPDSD
T3 sequence (G7PL88 entry or part of it limits assumed, form in doubt): as the sequence (P16410 36-161 limits assumed) above, with S14N, I18T, L106M counted along it
Chain of mouse CTLA-4 (P09793 36-161 limits assumed): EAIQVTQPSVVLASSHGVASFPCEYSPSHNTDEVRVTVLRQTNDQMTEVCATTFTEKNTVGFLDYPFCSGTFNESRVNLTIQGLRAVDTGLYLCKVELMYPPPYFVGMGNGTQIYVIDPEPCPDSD

B1: antibody A11 (L11H11) (antibody, V domains shown)
VH: QVQLVESGGGVVQPGRSLRLSCAASGFTFSSYGMHWVRQAPGKGLEWVAVIWYDVGNKYYIDSVKGRFTISRDNSKNTLYLQMNSLRAEDTAVYYCARDYYGSGSPRHFDYWGQGTLVTVSS
VL: DIQLTQSPSFLSASVGDRVTITCRASQGISSYLAWYQQKPGKAPKLLIYAASTLQSGVPSRFSGSGSGTEFTLTISSLQPEDFATYYCQQLNSYPPTFGQGTKVEIK
notes: also called aCTLA-4.31
Consider B1, for which the Kd (usually a measure of binding affinity in units of concentration) in experiment [1] was found to be 7.5 nM. In experiment [2], the “Promega assay % inhibition” value worked out at 26.6% and the “Promega assay antagonist (EC50, ug/mL)” value was 0.42 µg/mL. In experiment [3], binding was put at a Kd of 7.5 nM; the koff (commonly a measure of how fast the partners let go of each other) was found to be 0.00035 s⁻¹; the kon – broadly, the second-order rate constant of association – worked out at 47000 M⁻¹ s⁻¹. For the same molecule, the binding result with mouse CTLA-4 is “no binding (tested: 300 nM)”. In [4], this molecule showed a Kd of 1.6 nM.

B2: antibody A6 (L6H6) (antibody, V domains shown)
VH: QVQLVESGGGVVQPGRSLRLSCAASGFTFSSYGMHWVRQAPGKGLEWVAVIWYDGSYKYYADSVKGRFTISRDDSKNTLYLQMSSLRAEDTAVYYCARAPHYAILTGYYEDYWGQGTLVTVSS
VL: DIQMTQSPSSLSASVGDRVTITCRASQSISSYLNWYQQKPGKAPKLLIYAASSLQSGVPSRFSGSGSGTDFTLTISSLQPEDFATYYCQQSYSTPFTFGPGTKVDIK
Consider B2, for which the “Cell-based blocking activity EC50” value in [5] was 0.18 µg/mL. Further, the “Cell-based blocking activity max signal (RLU)” value in [5] is 338 RLU. For the same molecule, the “MFI of CD27+ CHO cells” value with CD27 on CHO cells [6] turned out to be 17.8. Moreover, the “MFI of CTLA-4+ CHO cells” value in experiment [7] came to 939. Also, the Kd in [1] was 5.7 nM; in experiment [8], 5.7 nM; in [3], 5.7 nM; in [9], 1.6 nM; with mouse CTLA-4, 87.8 nM; in experiment [4] it was 1.6 nM. In addition, the koff in [8] and in experiment [3] was 0.00035 s⁻¹ in each case. The kon in experiment [8] and in experiment [3] was 61000 M⁻¹ s⁻¹ each time. Further, the “Promega assay % inhibition” value in experiment [2] turned out to be 61.7%. In addition, in experiment [2], the “Promega assay antagonist (EC50, ug/mL)” value was 0.18 µg/mL. Besides, in the experiment with CD27 on CHO cells [10], the binding result is “no binding (tested: 10 µg/mL)”.

B3: antibody A4 (L4H4) (antibody, V domains shown)
VH: QVQLVESGGGVVQPGRSLRISCAASGFTFSSYGIHWVRQAPGKGLQWVAVIWYDGRNKYYADSVKGRFTISRDNSKNTLYLQMNSLRAEDTAVYYCSRSGSFGAFDIWGQGTMVTVSS
VL: EIVLTQSPGTLSLSPGDRATLSCRASQSGSSSYLAWYQQKPGQAPRLLIYGASSRATGIPDRFSGSGSGTDFTLTISRLEPEDFAVYYCQQYGTSPFTSGPGTKVDIK
notes: also called aCTLA-4.29
For B3, the “Cell-based blocking activity EC50” value in experiment [5] was 0.15 µg/mL. For the same molecule, the “Cell-based blocking activity max signal (RLU)” value in experiment [5] is 444 RLU. In addition, the “MFI of CD27+ CHO cells” value in the experiment with CD27 on CHO cells [6] is 16.3. Besides, the “MFI of CTLA-4+ CHO cells” value in experiment [7] turned out to be 999. Also, the Kd stood at 3 nM in experiment [1]; 3 nM in experiment [8]; 3 nM in experiment [3]; 1.2 nM in experiment [9]; 1.2 nM in experiment [4]. Moreover, the koff in experiment [8] and in experiment [3] was 0.00023 s⁻¹ throughout. The kon in [8] and in experiment [3] was 76000 M⁻¹ s⁻¹ throughout. For the same molecule, the “Promega assay % inhibition” value in experiment [2] is 81%. The “Promega assay antagonist (EC50, ug/mL)” value in [2] amounted to 0.15 µg/mL. Further, the values for the binding result with CD27 on CHO cells [10] and with mouse CTLA-4 were “no binding (tested: 10 µg/mL)” and “no binding (tested: 300 nM)”, respectively.

B4: antibody A13 (L13H13) (antibody, V domains shown)
VH: QVQLVESGGGVVQPGRSLRLSCAASGFTFSSYGMHWVRQAPGKGLEWVAVIWYDGRNKDYADSVKGRITISRDNSKNTLYLQMNSLRAEDTAVYYCARGGLLGPYFDYWGQGTLVTVSS
VL: not shown
notes: also called aCTLA-4.14
In the case of B4, the “Cell-based blocking activity EC50” value in experiment [5] turned out to be 0.09 µg/mL. For the same molecule, the “Cell-based blocking activity max signal (RLU)” value in experiment [5] is 73 RLU. In addition, the “MFI of CD27+ CHO cells” value with CD27 on CHO cells [6] came to 17. The “MFI of CTLA-4+ CHO cells” value in [7] worked out at 1024. Further, the dissociation constant (Kd) in experiment [1] stood at 3.2 nM; in experiment [8], 3.2 nM; in experiment [3] it was 3.2 nM; in [9], 9.6 nM; in [4] it was 9.6 nM. Moreover, the koff in experiment [8] and in experiment [3] was 0.00042 s⁻¹ throughout. In addition, the kon in experiment [8] and in experiment [3] was 130000 M⁻¹ s⁻¹ in each case. For the same molecule, the “Promega assay % inhibition” value in [2] is 13.3%. Further, in experiment [2], the “Promega assay antagonist (EC50, ug/mL)” value came to 0.09 µg/mL. The binding result in the experiment with CD27 on CHO cells [10] is reported as “no binding (tested: 10 µg/mL)”.
